Experimental data taken from article PMC2764547 (Structure (London, England : 1993), 2009).
Residue numbers refer to the chain shown, from its start. Names and notes keep the numbering of the source. Values joined by “and” are separate entries in the source; they are usually repeats but may differ in a detail not shown here. Identical values can stand only once. Where a SMILES comes first, the peptide text is derived from it. Where no end group is shown, it is not given here. fluorescein = fluorescein-β-alanine label at the N-terminus; βAla = NCCC(=O)O

Columns and labels:
H198P DegS = H198P DegS (Escherichia coli, UniProt P0AEE3, H198P); test: biochemical; parameters: species or system E. coli
Chain of H198P DegS (P0AEE3 27-355 H198P limits assumed): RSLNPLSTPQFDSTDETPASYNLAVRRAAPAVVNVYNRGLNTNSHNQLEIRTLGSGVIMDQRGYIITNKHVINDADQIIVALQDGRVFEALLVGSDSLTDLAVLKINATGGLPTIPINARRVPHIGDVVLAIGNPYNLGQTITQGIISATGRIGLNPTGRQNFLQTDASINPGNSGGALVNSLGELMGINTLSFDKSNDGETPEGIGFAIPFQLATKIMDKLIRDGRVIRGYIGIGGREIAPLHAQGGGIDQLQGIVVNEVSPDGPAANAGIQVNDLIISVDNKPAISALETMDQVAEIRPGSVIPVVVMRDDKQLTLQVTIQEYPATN

wild-type DegS [1] = target: T1, wild-type DegS (Escherichia coli, UniProt P0AEE3); test: biochemical; parameters: species or system E. coli
T1 sequence (P0AEE3 27-355): as the sequence (P0AEE3 27-355 H198P limits assumed) above, with P172H counted along it

H198P/K243D DegS = H198P/K243D DegS (Escherichia coli, UniProt P0AEE3, H198P/K243D); assay type: biochemical, E. coli; conditions: saturating OMP peptide, 23 ± 1 °C; average of two or more determinations
Chain of H198P/K243D DegS (P0AEE3 27-355 H198P/K243D limits assumed): as the sequence (P0AEE3 27-355 H198P limits assumed) above, with K217D counted along it

wild-type DegS [2] = target: T1, wild-type DegS; assay type: biochemical, E. coli; conditions: OMP peptide present, 23 ± 1 °C; average of two or more determinations
[3] = target: fluorescein-β-alanine-… OMP peptide; test: fluorescence polarisation
[4] = target: T2, H198P/D320A E. coli DegS (residues 27-355) (E. coli) (UniProt P0AEE3)
T2 sequence: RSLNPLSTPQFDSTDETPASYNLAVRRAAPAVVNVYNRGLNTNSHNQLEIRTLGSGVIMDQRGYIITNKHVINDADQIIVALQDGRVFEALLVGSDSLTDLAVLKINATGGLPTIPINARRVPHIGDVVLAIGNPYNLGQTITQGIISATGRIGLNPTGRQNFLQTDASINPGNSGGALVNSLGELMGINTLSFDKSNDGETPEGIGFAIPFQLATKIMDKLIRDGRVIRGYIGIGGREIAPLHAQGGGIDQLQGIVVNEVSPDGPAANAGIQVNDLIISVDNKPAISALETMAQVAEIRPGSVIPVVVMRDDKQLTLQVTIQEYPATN

[5] = target: T3, H198P/K243D E. coli DegS (residues 27-355) (E. coli) (UniProt P0AEE3)
T3 sequence: T2 sequence with K217D, A294D

[6] = target: T4, H198P E. coli DegS (residues 27-355) (E. coli) (UniProt P0AEE3)
T4 sequence: T2 sequence with A294D

crystal structure = target: the molecule itself; test: crystal structure
RseA [7] = test: Steady-state RseA cleavage; assay type: biochemical, E. coli; conditions: for Km: KM of RseA; for Km / Vmax: OMP peptide: None, 23 ± 1 °C, average of two or more determinations
RseA [8] = test: Cleavage of sub-KM RseA by DegS variants without OMP peptide; assay type: biochemical, E. coli; conditions: no OMP peptide
[9] = target: T5, H198P/D320A E. coli DegS (residues 27-355) (E. coli, UniProt P0AEE3 27-355, H198P | D320A); test: fluorescence polarisation
T5 sequence (looked up): T2 sequence

[10] = target: T6, D320A E. coli DegS (residues 27-355) (E. coli, UniProt P0AEE3 27-355, D320A); test: fluorescence polarisation
T6 sequence (looked up): T2 sequence with P172H

[11] = target: T7, H198P/K243D E. coli DegS (residues 27-355) (E. coli, UniProt P0AEE3 27-355, H198P | K243D); test: fluorescence polarisation
T7 sequence (looked up): T2 sequence with K217D, A294D

[12] = target: T8, wild-type E. coli DegS (residues 27-355) (E. coli, UniProt P0AEE3 27-355); test: fluorescence polarisation
T8 sequence (looked up): T2 sequence with P172H, A294D

[13] = target: T9, K243D E. coli DegS (residues 27-355) (E. coli, UniProt P0AEE3 27-355, K243D); test: fluorescence polarisation
T9 sequence (looked up): T2 sequence with P172H, K217D, A294D

[14] = target: T10, H198P E. coli DegS (residues 27-355) (E. coli, UniProt P0AEE3 27-355, H198P); test: fluorescence polarisation
T10 sequence (looked up): T2 sequence with A294D

Q: Which results are given for DNRDGNVYQF?
A: EC50 (H198P DegS): 4.4 ± 0.6 µM; EC50 (wild-type DegS [1]): 50 ± 5 µM

Q: Which Vmax (H198P/K243D DegS) does the source give for DNRDGNVYYF here?
A: The Vmax was 1.8 ± 0.2 s^-1 enz^-1.

Q: What about the Vmax (wild-type DegS [2]) of the same molecule?
A: Its Vmax is 1.1 ± 0.2 s^-1 enz^-1.

Q: With “PDZ domain of E. coli DegS (domain or fragment)” as the molecule, how does the Kd [3] read?
A: Its Kd is 0.6 µM.

Q: What does the source list for `NC(=O)CC[C@H](NC(=O)[C@@H](N)Cc1ccc(O)cc1)C(=O)N[C@@H](Cc1ccccc1)C(=O)O` [YQF] (H-Tyr-Gln-Phe-OH)?
A: EC50 (H198P DegS): 29 ± 5 µM; EC50 (wild-type DegS [1]): 260 ± 10 µM

B1: 35S-labeled variant of the periplasmic domain of E. coli RseA (residues 121-216) (domain or fragment)
chain: YNGQSETSQQPETPVFNTLPMMGKASPVSLGVPSEATANNGQQQQVQEQRRRINAMLQDYELQRRLHSEQLQFEQAQTQQAAVQVPGIQTLGTQSQ
modifications: 35S-labeled
Q: B1 was tested. Which KM of RseA cleavage, without OMP peptide [4] did it give?
A: The KM of RseA cleavage, without OMP peptide was 110 µM.

Q: And the KM of RseA cleavage, without OMP peptide [5]?
A: Its KM of RseA cleavage, without OMP peptide is 70 µM.

Q: And the KM of RseA cleavage, with saturating YQF peptide [6]?
A: Its KM of RseA cleavage, with saturating YQF peptide is 69 µM.

Q: What about the KM of RseA cleavage, with saturating YYF peptide [6] of the same molecule?
A: Its KM of RseA cleavage, with saturating YYF peptide is 64 µM.

Q: And the KM of RseA cleavage, with saturating … peptide [6]?
A: The KM of RseA cleavage, with saturating … peptide was 94 µM and 130 µM.

Q: What about the KM of RseA cleavage, without OMP peptide [6] of the same molecule?
A: The KM of RseA cleavage, without OMP peptide was 560 µM.

B2: DFP-modified H198P/D320A E. coli DegS (residues 27-355) (enzyme, UniProt P0AEE3 27-355, looked up)
chain: T2 sequence
modifications: Ser201 modified by diisopropylfluorophosphate (DFP); seen as monoisopropylphosphorylserine (Mis201) in the crystal structures
Q: Which “stoichiometry N” value (crystal structure) does the source give for B2 here?
A: Its value is 3.

B3: H198P/D320A: DegS double mutant (protein)
chain: T2 sequence
modifications: left off: His6, N-terminal, state not stated
Q: Which results are given for B3?
A: Km (RseA [7]): 110 ± 10 µM; Vmax (RseA [7]): 1.6 ± 0.2 s^-1 enz^-1

B4: H198P/K243D: DegS double mutant (protein)
chain: T2 sequence with K217D, A294D
modifications: left off: His6, N-terminal, state not stated
Q: How did the Km (RseA [7]) turn out when B4 was run?
A: The Km was 70 ± 5 µM.

Q: What about the Vmax (RseA [7]) of the same molecule?
A: Its Vmax is 1.2 ± 0.1 s^-1 enz^-1.

B5: H198P: DegS variant with His^198 substituted by proline (protein)
chain: T2 sequence with A294D
modifications: left off: His6, N-terminal, state not stated
Q: B5 was tested. Which “RseA cleavage rate relative to wild-type DegS” value (RseA [8]) did it give?
A: The value was 150 fold.

Q: What about the Km (RseA [7]) of the same molecule?
A: The Km was 560 ± 40 µM.

Q: What about the Vmax (RseA [7]) of the same molecule?
A: The Vmax was 1.4 ± 0.3 s^-1 enz^-1.

Q: And the “activity with high RseA alone relative to best OMP-peptide activation” value (RseA [7]; high concentrations of RseA, no OMP peptide)?
A: The value was “about 60%”.

Q: {fluorescein-βAla}-KKDNRDGNYYF [fluorescein-β-alanine-KKDNRDGNYYF OMP peptide] was tested. Which Kd [9] did it give?
A: The Kd was 0.45 µM.

Q: And the Kd [10]?
A: The Kd was 1.1 µM.

Q: What about the Kd [11] of the same molecule?
A: Its Kd is 0.68 µM.

Q: And the Kd [12]?
A: The Kd was 4.6 µM.

Q: And the Kd [13]?
A: Its Kd is 3.1 µM.

Q: What about the Kd [14] of the same molecule?
A: Its Kd is 1.9 µM.
